{"source": "patent US20250277030A1", "about": "“ANTI-NAPI2B ANTIBODIES AND METHODS OF USE” (Zymeworks BC Inc., priority 2022, published 2025)", "key": {"[1]": {"target": "T1, NaPi2b expressed on IGROV-1 cells (Homo sapiens, UniProt O95436)", "T1 construct": "IGROV-1 cells express endogenous NaPi2b at a high level; endogenous in cells; host or cells: IGROV-1", "T1 sequence (O95436 1-690)": "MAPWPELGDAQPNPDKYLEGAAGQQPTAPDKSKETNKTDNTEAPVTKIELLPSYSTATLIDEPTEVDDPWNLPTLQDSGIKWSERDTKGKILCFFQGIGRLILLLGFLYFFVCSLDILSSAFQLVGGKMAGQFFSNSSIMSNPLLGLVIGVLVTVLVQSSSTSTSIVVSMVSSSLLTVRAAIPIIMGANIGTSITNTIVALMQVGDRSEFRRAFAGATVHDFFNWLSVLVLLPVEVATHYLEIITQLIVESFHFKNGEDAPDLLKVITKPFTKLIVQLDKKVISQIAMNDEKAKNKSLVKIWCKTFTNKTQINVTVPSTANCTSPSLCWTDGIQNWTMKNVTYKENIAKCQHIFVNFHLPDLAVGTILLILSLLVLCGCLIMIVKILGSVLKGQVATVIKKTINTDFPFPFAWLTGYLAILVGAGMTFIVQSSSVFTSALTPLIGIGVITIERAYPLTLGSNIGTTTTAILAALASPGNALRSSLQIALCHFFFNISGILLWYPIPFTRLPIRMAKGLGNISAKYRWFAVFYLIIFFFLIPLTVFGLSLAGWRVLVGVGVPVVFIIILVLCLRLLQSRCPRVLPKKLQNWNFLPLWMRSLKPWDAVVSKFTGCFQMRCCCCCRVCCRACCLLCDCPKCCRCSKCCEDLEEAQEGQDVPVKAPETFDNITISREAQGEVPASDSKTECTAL", "experiment": "Cellular binding to IGROV-1 cells by flow cytometry (Example 19)", "details": "NB = no binding (apparent Kd >150 nM)", "experimental": "(§1) Briefly, cells were seeded at 50,000 cells/well in conical-bottom 96-well plates and treated with test antibody for 24 hours at 4° C. to prevent internalization. Palivizumab (anti-RSV antibody, v22277) was included as a negative control. […] Following incubation, cells were washed and stained with anti-Human IgG Fc AF647 conjugate (Jackson Immuno Research Labs, West Grove, PA; Cat. No. 109-605-098) at 4° C. for 30 min. Following incubation and washing, fluorescence was detected by flow cytometry on a BD LSRFortessa™ Cell Analyzer (BD Biosciences, Franklin Lake, NJ) with 1,000 minimum events collected per well. The AF647/APC-A GeoMean (fluorescence signal geometric mean, proportional to anti-Human AF647 binding) was calculated for the live cell population using FlowJo™ Version 10.8.1 (BD Biosciences, Franklin Lake, NJ) and plotted for each test antibody using GraphPad Prism Version 9 (GraphPad Software, San Diego, CA).\n(§2) The ability of the humanized antibody variants v38591 and v29456 to bind to NaPi2b expressed on cells was assessed on endogenous NaPi2b-expressing tumor cell lines IGROV-1 (ovarian adenocarcinoma) and TOV-21G (ovarian carcinoma) by flow cytometry. IGROV-1 and TOV-21G cells express endogenous NaPi2b at high and moderate levels, respectively, as described in Example 10.\n(§3) Cellular binding was performed according to methods described in Example 13."}, "[2]": {"target": "T2, NaPi2b expressed on TOV-21G cells (Homo sapiens, UniProt O95436)", "T2 construct": "IGROV-1 and TOV-21G cells express endogenous NaPi2b at high and moderate levels, respectively; endogenous in cells; host or cells: TOV-21G", "T2 sequence (O95436 1-690)": "T1 sequence (O95436 1-690)", "experiment": "Cellular binding to TOV-21G cells by flow cytometry (Example 19)", "details": "NB = no binding (apparent Kd >150 nM)", "experimental": "as §1, §2, §3"}, "[3]": {"target": "T3, mouse NaPi2b (Mus musculus, UniProt Q9DBP0)", "T3 construct": "expressed in transfected cells; host or cells: HEK293-6e", "T3 sequence (Q9DBP0 1-697)": "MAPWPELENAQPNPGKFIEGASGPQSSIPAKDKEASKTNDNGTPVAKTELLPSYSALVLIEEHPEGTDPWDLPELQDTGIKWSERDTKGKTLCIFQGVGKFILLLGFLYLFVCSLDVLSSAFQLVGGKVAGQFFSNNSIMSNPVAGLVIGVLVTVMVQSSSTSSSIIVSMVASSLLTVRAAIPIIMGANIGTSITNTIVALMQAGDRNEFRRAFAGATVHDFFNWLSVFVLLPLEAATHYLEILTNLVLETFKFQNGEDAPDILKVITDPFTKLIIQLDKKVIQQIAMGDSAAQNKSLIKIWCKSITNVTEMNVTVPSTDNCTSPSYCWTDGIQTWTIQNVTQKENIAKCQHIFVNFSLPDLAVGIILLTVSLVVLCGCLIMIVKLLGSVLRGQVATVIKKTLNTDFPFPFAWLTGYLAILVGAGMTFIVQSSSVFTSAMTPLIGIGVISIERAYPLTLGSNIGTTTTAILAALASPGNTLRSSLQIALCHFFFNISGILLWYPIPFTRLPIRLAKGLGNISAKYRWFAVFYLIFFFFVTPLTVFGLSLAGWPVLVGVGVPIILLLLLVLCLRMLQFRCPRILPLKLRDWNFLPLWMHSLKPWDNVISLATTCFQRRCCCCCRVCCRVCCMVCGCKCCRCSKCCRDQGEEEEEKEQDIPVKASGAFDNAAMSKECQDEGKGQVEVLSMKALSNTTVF", "experiment": "Flow cytometry binding to HEK293-6e cells transfected with mouse NaPi2b (Example 5)", "details": "transfected HEK293-6e cells", "experimental": "(§4) The binding cross-reactivity of humanized antibody variant v29456 to human, cynomolgus and mouse NaPi2b was assessed by flow cytometry using HEK293-6e transfected cells.\n(§5) Briefly, HEK293-6e cells were transfected for ˜24 hours to transiently express human NaPi2b, cynomolgus or mouse NaPi2b, at 1 μg of DNA per 1 million cells. Following transfection, 50,000 cells per well were seeded in V-bottom 96-well plates and incubated with 200 nM of primary antibody for 18-24 hours at 4° C. to prevent internalization. Post-incubation, cells were washed and stained with anti-Human IgG Fc AF647 conjugate (Jackson Immuno Research Labs, West Grove, PA, Cat. No. 109-605-098, Lot. No. 124868) at 4° C. for 1 hour. Following staining and washing, fluorescence was detected by flow cytometry on BD LSRFortessa™ Cell Analyzer (BD Biosciences, Franklin Lake, NJ) with 10,000 minimum events collected per well. The AF647/APC-A GeoMean (fluorescence signal geometric mean, proportional to anti-Human AF647 binding) was calculated for the live singlet cell population for each primary antibody using FlowJo™ v8 software (BD Biosciences, Franklin Lake, NJ). The Bmax and Kd of each primary antibody were calculated using GraphPad Prism Version 9 (GraphPad Software, San Diego, CA)"}, "[4]": {"target": "T4, human NaPi2b (Homo sapiens, UniProt O95436)", "T4 construct": "host or cells: HEK293-6e", "T4 sequence (O95436 1-690)": "T1 sequence (O95436 1-690)", "experiment": "Flow cytometry binding to HEK293-6e cells transfected with human NaPi2b (Example 5)", "details": "transfected HEK293-6e cells", "experimental": "as §4, §5"}}}
{"substance": "v22277: anti-RSV antibody palivizumab, negative control; has a heterodimeric Fc [reference compound]", "values": [{"measurement": "Kd", "setting": "[1]", "result": "> 0.15", "unit": "µM"}, {"measurement": "Kd", "setting": "[2]", "result": "> 0.15", "unit": "µM"}, {"measurement": "Binding to mouse NaPi2b, in words", "setting": "[3]", "result": "did not bind"}, {"measurement": "Binding to human NaPi2b, in words", "setting": "[4]", "result": "did not bind"}]}
